Experimental data reported in US20230321261A1, “AXL-SPECIFIC ANTIBODY-DRUG CONJUGATES FOR CANCER TREATMENT” (GENMAB A/S, priority 2016, published 2023).
Positions count from the first letter of the chain named. Names and notes keep the numbering of the source.

Experiments:
[1] = biological target: T1, AXLECDHis (extracellular domain of human AXL) (Homo sapiens, UniProt P30530); assay: Binding affinity by Bio-Layer Interferometry (ForteBio OctetRED384); settings: 1:1 model, 30° C.
T1 construct: the extracellular domain (ECD) of human AXL (aa 1-447) with a C-terminal His tag (AXLECDHis); His tag (C); made in house; host or cells: HEK-293F

full length human AXL = biological target: T2, full length human AXL (Homo sapiens, UniProt P30530); assay: Flow cytometry binding to transfected HEK293T cells; settings: at least 3 experiments
T2 construct: expression constructs for full length human AXL; expressed in transfected cells; host or cells: HEK293T
Protocol: HEK293T cells were transiently transfected with expression constructs for full length human AXL, human AXL with a cynomolgus monkey extracellular domain (ECD) or human AXL with a mouse ECD (see Example 1). Binding of HuMab-AXL antibodies to these cells was evaluated by flow cytometry. Transfected HEK293 cells were incubated with serial dilutions of AXL-antibodies (final concentration range 0.0024-10 µg/mL) for 30 minutes at 4° C. […] Next, cells were washed twice in PBS/0.1% BSA/0.02% azide, resuspended in 120 µL PBS/0.1% BSA/0.02% azide and analyzed on a FACS Cantoll (BD Biosciences).
(§1) Binding curves were analyzed using non-linear regression (sigmoidal dose-response with variable slope) using GraphPad Prism V5.04 software (GraphPad Software, San Diego, CA, USA).

[2] = biological target: T3, human AXL with a cynomolgus monkey extracellular domain (ECD) (Homo sapiens, UniProt P30530, P441T/S191N/S285L/T105A/T112A/T125N/T443A); assay: as above; settings: at least 3 experiments
T3 construct: aa 1-447); human AXL transmembrane and intracellular part (the remainder of human AXL after the ECD; expressed in transfected cells; host or cells: HEK293T

AXL on A431 cells = biological target: T4, AXL on A431 cells (Homo sapiens, UniProt P30530); assay: Antibody binding to A431 cells with or without Gas6 pre-incubation; settings: for Antibody binding to A431 cells: EC50 in presence of Gas6 (µg/mL) mean (s.d.) / Antibody binding to A431 cells: Maximal binding in presence of Gas6 (% of binding in absence of Gas6) mean (s.d.): pre-incubation with 10 µg/mL Gas6; for Antibody binding to A431 cells: EC50 w/o Gas6 (µg/mL) mean (s.d.): without Gas6 pre-incubation
T4 construct: AXL-positive A431 cells were incubated; endogenous in cells; host or cells: A431

[3] = biological target: T5, Gas6 binding to AXL on A431 cells (Homo sapiens, UniProt P30530); assay: Gas6 binding to A431 cells pre-incubated with AXL antibodies; settings: pre-incubation with 10 µg/mL antibody; control antibody b12
T5 construct: endogenous in cells; host or cells: A431
Protocol: Alternatively, A431 cells were pre-incubated with 10 µg/mL AXL antibodies (15 minutes, 4° C.) to assess if the AXL ligand Gas6 could still bind in presence of AXL antibodies. […] After washing three times in PBS/0.1% BSA/0.02% azide, cells were incubated with mouse anti-Gas6 IgG2a (R&D Systems; cat no. MAB885) at 4° C. for 30 min. After washing three times in PBS/0.1% BSA/0.02% azide, cells were incubated with FITC-labelled goat anti-mouse IgG (Dako, Heverlee, Belgium; cat no. F049702) at 4° C. for 30 min in the dark. Next, cells were washed twice in PBS/0.1% BSA/0.02% azide, resuspended in 120 µL PBS/0.1% BSA/0.02% azide and analyzed on a FACS Cantoll (BD Biosciences).
as §1
Therefore, binding of Gas6 to A431 cells that had been pre-incubated with 10 µg/mL AXL antibodies was tested as described in Example 2.

[4] = biological target: T6, human-mouse chimeric AXL mutants (Homo sapiens, UniProt P30530, A151P/A183V/D170T/D266N/G187S/H193Q/P184T/P188S/R148K/R190H/T149A/T182P/V194T); assay: AXL domain specificity using human-mouse AXL chimeric molecules (flow cytometry); type: binding; settings: 1 µg/mL antibody
T6 construct: constructs for expression of various full-length AXL variants were generated; expressed in transfected cells; host or cells: HEK293F

A431 cells = assay: Antibody-dependent cell-mediated cytotoxicity (51Cr release); type: cell-based, human; settings: concentrations up to 10 µg/mL; PBMC effector to target ratio 100:1
Protocol: The ability of anti-AXL antibodies to induce ADCC of A431 epidermoid carcinoma cells was determined as explained below. As effector cells, peripheral blood mononuclear cells from healthy volunteers (UMC Utrecht, The Netherlands) were used.
A431 cells were collected (5×10^6 cells) in culture medium (RPMI 1640 culture medium supplemented with 10% fetal calf serum (FSC)), to which 100 µCi ^51Cr (Chromium-51; Amersham Biosciences Europe GmbH, Roosendaal, The Netherlands) had been added, and the mixture was incubated in a 37° C. water bath for 1 hour (hr) while shaking. After washing of the cells (twice in PBS, 1200 rpm, 5 min), the cells were resuspended in RPMI1640/10% FSC and counted by trypan blue exclusion. […]
Peripheral blood mononuclear cells (healthy volunteers, UMC Utrecht, Utrecht, The Netherlands) were isolated from 45 mL of freshly drawn heparin blood by Ficoll (Bio Whittaker; lymphocyte separation medium, cat 17-829E) according to the manufacturer’s instructions. After resuspension of cells in RPMI1640/10% FSC, cells were counted by trypan blue exclusion and diluted to a density of 1×10^7 cells/mL.
50 µl of ^51Cr-labeled targets cells were pipetted into 96-well plates, and 50 µl of antibody were added, diluted in RPMI1640/10% FSC (3-fold dilutions at final concentrations range 0.01-10 µg/mL). […] The percentage specific lysis was calculated as follows: […]

[5] = biological target: T7, human AXL transiently expressed by HEK-293F cells (Homo sapiens, UniProt P30530); assay: Homogeneous antigen specific screening assay (FMAT); type: binding
T7 construct: TH1021-AXL (HEK-293F cells transiently expressing full length human AXL; produced as described above); expressed in transfected cells; host or cells: HEK-293F

PAXF1657 tumors = assay: PAXF1657 pancreas cancer PDX model; type: in vivo, NMRI nu/nu mice; settings: mouse, in vivo
[6] = biological target: T8, human-mouse chimeric AXL mutants (Homo sapiens, UniProt P30530, A349V/A358V/A407T/A411S/A425P/A431G/C405S/D266N/F350L/G397R/H352R/I340V/K439S/P444R/Q372R/Q387R/Q394R/Q436H/R386T/S398P/S400A/S442P/T343M/T443P/V434L); assay: AXL domain specificity using human-mouse AXL chimeric molecules (flow cytometry); type: binding; settings: 1 µg/mL antibody
T8 construct: constructs for expression of various full-length AXL variants were generated; expressed in transfected cells; host or cells: HEK293F

[7] = biological target: T9, human-mouse chimeric AXL mutants (Homo sapiens, UniProt P30530, A273L/A287V/A310S/E275K/E281D/G297E/H300L/L233V/M269V/N230H/P276S/P329T/Q227R/Q272W/R229H/S285L/S298K/S319P/T259N/T312S/V309I); assay: as above; type: binding; settings: 1 µg/mL antibody
T9 construct: constructs for expression of various full-length AXL variants were generated; expressed in transfected cells; host or cells: HEK293F

B1: IgG1-AXL-148: AXL-specific human IgG1,κ antibody, VH SEQ ID NO:5, VL SEQ ID NO:6, Ig2 domain binding (antibody, listed as Homo sapiens, V domains shown)
VH: EVQLLESGGGLVQPGGSLRLSCAASGFTFSSYAMTWVRQAPGKGLEWVSAISISGGSTFYADSVKGRFTISRDNSKNTLYLQMNSLRAEDTAVYYCRGYSGYVYDAFDFWGQGTMVTVSS
VL: DIQMTQSPSSLSASVGDRVTITCRASQGISNWLAWYQQKPEKAPKSLIYAASSLQSGVPSRFSGSGSGTDFTLTISSLQPEDFATYYCQQYNSYPLTFGGGTKVEIK
[1]
  Binding affinity (OCTET) Kdis: 0.0044 s⁻¹
  Binding affinity (OCTET) Kon: 230000 M⁻¹ s⁻¹
Full length human AXL
  Binding EC50 (µg/mL) human AXL Average (s.d.): 0.094 (0.059) µg/mL
[2]
  Binding EC50 (µg/mL) cynomolgus AXL Average (s.d.): 0.152 (0.080) µg/mL
AXL on A431 cells
  Antibody binding to A431 cells: EC50 in presence of Gas6 (µg/mL) mean (s.d.): 0.20 (0.30) µg/mL
  Antibody binding to A431 cells: Maximal binding in presence of Gas6 (% of binding in absence of Gas6) mean (s.d.): 93 (5) %
  Antibody binding to A431 cells: EC50 w/o Gas6 (µg/mL) mean (s.d.): 0.11 (0.13) µg/mL
[3]
  Gas6 binding to A431 cells: Maximal binding in presence of AXL antibodies (% of binding in presence of control antibody) mean (s.d.): 106 (7) %
[4]
  binding to hsAXL-mmIg2: strongly reduced binding
A431 cells
  ADCC in A431 cells (percentage specific lysis): did not induce significant ADCC
[5]
  Maximal binding (Arbitrary units): 3499 Arbitrary units
PAXF1657 tumors
  anti-tumor activity in the PAXF1657 model (FIG. 10B, 10C): did not result in anti-tumor activity

B2: IgG1-AXL-726-M101L: point mutant of IgG1-AXL-726, VH SEQ ID NO:32, VL SEQ ID NO:33 (antibody, listed as Homo sapiens, V domains shown)
VH: QVQLQQWGAGLLKPSETLSLTCAIDGGSFSGYYWSWIRQPPGKGLEWIGEISHSGRTNYNPSLKSRVTISIDTSKNQFSLKLSSVAAADTAVYYCARFITLIRGAIITHFDYWGQGALVTVSS
VL: B1 VL with N31S, N92H, L96Y, G100Q, V104L
[1]
  Binding affinity (OCTET) Kdis: 6.9e-05 s⁻¹
Full length human AXL
  Binding EC50 (µg/mL) human AXL Average (s.d.): 0.184 (0.117) µg/mL
[2]
  Binding EC50 (µg/mL) cynomolgus AXL Average (s.d.): 0.250 (0.066) µg/mL
A431 cells
  ADCC in A431 cells (percentage specific lysis): did not induce significant ADCC

B3: IgG1-AXL-726: AXL-specific human IgG1,κ antibody, VH SEQ ID NO:31, VL SEQ ID NO:33, FN2 domain binding (antibody, listed as Homo sapiens, V domains shown)
VH: B2 VH with L101M
VL: B1 VL with N31S, N92H, L96Y, G100Q, V104L
[1]
  Binding affinity (OCTET) Kdis: 0.00013 s⁻¹
  Binding affinity (OCTET) Kon: 240000 M⁻¹ s⁻¹
Full length human AXL
  Binding EC50 (µg/mL) human AXL Average (s.d.): 0.288 (0.206) µg/mL
[2]
  Binding EC50 (µg/mL) cynomolgus AXL Average (s.d.): 0.349 (0.160) µg/mL
AXL on A431 cells
  Antibody binding to A431 cells: EC50 in presence of Gas6 (µg/mL) mean (s.d.): 0.55 (0.69) µg/mL
  Antibody binding to A431 cells: Maximal binding in presence of Gas6 (% of binding in absence of Gas6) mean (s.d.): 97 (10) %
  Antibody binding to A431 cells: EC50 w/o Gas6 (µg/mL) mean (s.d.): 0.32 (0.35) µg/mL
[3]
  Gas6 binding to A431 cells: Maximal binding in presence of AXL antibodies (% of binding in presence of control antibody) mean (s.d.): 98 (10) %
[6]
  binding to hsAXL-mmFN2: lost
[5]
  Maximal binding (Arbitrary units): 3154 Arbitrary units

B4: IgG1-AXL-733: AXL-specific human IgG1,κ antibody, VH SEQ ID NO:34, VL SEQ ID NO:35, FN1 domain binding (antibody, listed as Homo sapiens, V domains shown)
VH: QVQLVESGGGVVQPGRSLRLSCAASGFSFSTYAMHWVRQAPGKGLEWVAVISYDGDNKYSADSVKGRFTISRDNSKNTLYLQMNSLRAEDTAVYYCARGRKLGIDAFDIWGQGTMVTVSS
VL: AIQLTQSPSSLSASVGDRVTITCRASQGISSALAWYQQKPGKAPKLLIYDASSLESGVPSRFSGSGSGTDFTLTISGLQPEDFATYYCQQFNSYPFTFGPGTKVDIK
[1]
  Binding affinity (OCTET) Kdis: 0.0097 s⁻¹
  Binding affinity (OCTET) Kon: 160000 M⁻¹ s⁻¹
Full length human AXL
  Binding EC50 (µg/mL) human AXL Average (s.d.): 0.176 (0.094) µg/mL
[2]
  Binding EC50 (µg/mL) cynomolgus AXL Average (s.d.): 0.254 (0.114) µg/mL
AXL on A431 cells
  Antibody binding to A431 cells: EC50 in presence of Gas6 (µg/mL) mean (s.d.): 0.62 (0.23) µg/mL
  Antibody binding to A431 cells: Maximal binding in presence of Gas6 (% of binding in absence of Gas6) mean (s.d.): 93 (5) %
  Antibody binding to A431 cells: EC50 w/o Gas6 (µg/mL) mean (s.d.): 0.49 (0.51) µg/mL
[3]
  Gas6 binding to A431 cells: Maximal binding in presence of AXL antibodies (% of binding in presence of control antibody) mean (s.d.): 96 (5) %
[7]
  binding to hsAXL-mmFN1: reduced binding
